In paper PMC10398670 (EMBO Reports, 2023):

Legend:
[1] = biological target: T1, GST::MIRO‐1 (C. elegans, UniProt Q94263 1-601); experiment: pull-down
T1 sequence (looked up): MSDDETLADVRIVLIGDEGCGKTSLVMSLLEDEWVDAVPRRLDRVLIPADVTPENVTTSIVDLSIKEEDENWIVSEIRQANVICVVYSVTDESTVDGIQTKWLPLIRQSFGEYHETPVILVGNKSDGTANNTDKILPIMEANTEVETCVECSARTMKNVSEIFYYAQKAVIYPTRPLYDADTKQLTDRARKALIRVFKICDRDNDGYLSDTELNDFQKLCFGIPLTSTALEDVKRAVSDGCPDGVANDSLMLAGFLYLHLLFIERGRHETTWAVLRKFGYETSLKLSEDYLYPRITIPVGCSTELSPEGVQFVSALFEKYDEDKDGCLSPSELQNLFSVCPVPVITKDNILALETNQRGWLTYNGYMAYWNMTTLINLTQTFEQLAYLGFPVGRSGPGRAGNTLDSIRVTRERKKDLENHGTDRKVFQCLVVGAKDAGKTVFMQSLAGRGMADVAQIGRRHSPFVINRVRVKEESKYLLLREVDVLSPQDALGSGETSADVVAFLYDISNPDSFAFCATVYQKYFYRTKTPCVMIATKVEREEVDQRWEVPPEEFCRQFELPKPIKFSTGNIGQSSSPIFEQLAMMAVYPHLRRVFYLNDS

[2] = biological target: T2, MIRO‐1::His (C. elegans, UniProt Q94263 1-601); experiment: cross-linking
T2 sequence (looked up): T1 sequence (looked up)

B1: VDAC‐1::His (natural protein, C. elegans, UniProt Q21752 1-283, looked up)
chain: MAPPTFADLGKSAKDLFNKGYNFGFLKIDSTTRAGDNKEVEFKSAASHNIGSGKLGGNLDVKYKIPQYGITLTEKWNTENQLGTVIEVNEQFGRGLKVTLDSLYAPHAGKRSGKVKLDWALPTARVTADVGVTSAPVINAAGVFSRDGWLIGAAATFDSSSNKLAATSLAFGHSTPQYTLHSFVINSTDFGASLYHKVASNVEVGTQLGWKVGGNGADYALATKYAPSRDLTVRAKVNSSSQVAVAATHSLSPALKLTLSTQFNLAANDAHKFGLGLEFDPSN
binding result [1]: binds
binding result [2]: binds
